Experiments:
[1] = biological target: T1, human OX40, histidine-tagged recombinant (human, UniProt P43489 29-214); assay: SPR; BioRAD ProteOn XPR36; His-tagged targets immobilised on Ni-activated HTG chip; analyte in PBS/Tween (0.005%) pH 7.0, 3 min injection, 5 min dissociation, flow 80-100 μl/min; settings: both partners purified
T1 construct: OX40, human, recombinant; also called hOX40-His; source: bought: Acro Biosystems (SPR); for the ELISAs the vendor is one of Jackson ImmunoResearch, Sino Biological, Acro Biosystems, R&D Systems
T1 sequence (looked up): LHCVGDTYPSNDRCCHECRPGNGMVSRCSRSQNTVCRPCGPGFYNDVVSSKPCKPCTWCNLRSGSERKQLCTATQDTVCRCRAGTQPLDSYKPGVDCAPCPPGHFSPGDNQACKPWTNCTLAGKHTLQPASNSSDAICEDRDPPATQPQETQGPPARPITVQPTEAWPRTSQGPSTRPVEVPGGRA

[2] = biological target: T2, human OX40, histidine-tagged recombinant (human, UniProt P43489 29-214); assay: SPR
T2 chain: T1 sequence (looked up)

- Kd [1]: 9.28 nM
- koff [2]: 0.00069 s⁻¹
B1: recombinant human OX40L-Fc (Fc fusion, UniProt P23510 51-183, looked up)
chain: QVSHRYPRIQSIKVQFTEYKKEKGFILTSQKEDEIMKVQNNSVIINCDGFYLISLKGYFSQEVNISLHYQKDEEPLFQLKKVRSVNSLMVASLTYKDKVYLNVTTDNTSLDDFHVNGGELILIHQNPGEFCVL
notes: OX40L, human, recombinant Fc fusion; The background says in general that in OX40L-Fc proteins the Fc precedes OX40L; also called hOX40L-Fc; Fc-OX40L; source: bought: Acro Biosystems

Reference: paper PMC6299665 (Journal for Immunotherapy of Cancer, 2018)
